Blank lines part the entries; values can stand above or below the binder they belong to. Where no end group is shown, it is not given here. The star is where a group is joined. DTPA = O=C(O)CN(CCN(CC(=O)O)CC(=O)O)CCN(CC(=O)O)CC(=O)*
Assays:
[1] = biological target: RXFP1 Y58A, full length (human); assay: europium-labelled ligand saturation binding on cells (time-resolved fluorescence); HEK293T cells transiently transfected with receptor, 96-well plates; increasing Eu-H2 relaxin (maximum 15 nM) with or without 1 μM unlabelled H2 relaxin, 1 h, room temperature; 20 mM HEPES pH 7.5, […] CaCl2, 50 mM NaCl, 0.01% NaN3, 1% BSA; one-site fit
[2] = biological target: RXFP1 F50A^ins, full length (human); assay: as above
[3] = biological target: RXFP1 Q49A/F50A, full length (human); assay: as above
[4] = biological target: RXFP1 F50A, full length (human); assay: as above
[5] = biological target: relaxin family peptide receptor-1 (RXFP1), wild type, full length (human) (UniProt Q9HBX9)
[6] = biological target: RXFP1 G45A, full length (human)
[7] = biological target: RXFP1 F54A/Y58A, full length (human)
[8] = biological target: RXFP1 F66A, full length (human)
[9] = biological target: RXFP1 F54A, full length (human)
[10] = biological target: RXFP1 M60A, full length (human)
[11] = biological target: RXFP1 N43A, full length (human)
[12] = biological target: RXFP1 N44A, full length (human)
[13] = biological target: RXFP1 E67A^ins, full length (human)
[14] = biological target: RXFP1 D42A, full length (human)
[15] = biological target: T1, RXFP1 D51A, full length (human)
T1 sequence (Q9HBX9 1-757 with D51A, looked up): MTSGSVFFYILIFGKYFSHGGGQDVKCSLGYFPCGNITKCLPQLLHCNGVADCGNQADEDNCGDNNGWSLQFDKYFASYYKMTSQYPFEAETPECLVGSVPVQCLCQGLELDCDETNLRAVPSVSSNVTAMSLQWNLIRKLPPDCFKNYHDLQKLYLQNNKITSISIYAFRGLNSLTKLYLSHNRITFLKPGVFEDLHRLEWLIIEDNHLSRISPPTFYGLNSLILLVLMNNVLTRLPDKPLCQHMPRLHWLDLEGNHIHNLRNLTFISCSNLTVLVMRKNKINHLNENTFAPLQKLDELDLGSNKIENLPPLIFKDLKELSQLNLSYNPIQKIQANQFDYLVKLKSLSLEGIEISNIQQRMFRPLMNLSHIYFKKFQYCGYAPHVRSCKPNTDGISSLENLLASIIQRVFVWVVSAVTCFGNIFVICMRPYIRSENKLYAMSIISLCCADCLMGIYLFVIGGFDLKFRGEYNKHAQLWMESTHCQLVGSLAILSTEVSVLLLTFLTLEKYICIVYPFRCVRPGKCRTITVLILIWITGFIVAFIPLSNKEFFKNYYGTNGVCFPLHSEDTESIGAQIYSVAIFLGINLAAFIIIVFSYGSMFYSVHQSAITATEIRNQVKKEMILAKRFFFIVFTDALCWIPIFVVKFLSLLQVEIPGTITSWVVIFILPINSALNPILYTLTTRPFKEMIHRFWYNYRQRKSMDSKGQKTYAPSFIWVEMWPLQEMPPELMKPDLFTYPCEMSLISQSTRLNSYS

[16] = biological target: RXFP1 A55L, full length (human)
[17] = biological target: RXFP1 N43A/N44A, full length (human)
[18] = biological target: RXFP1 F50A^ins, full length (human)
[19] = biological target: RXFP1 F50A, full length (human)
[20] = biological target: RXFP1 G41A, full length (human)
[21] = biological target: T2, RXFP1 A68^Δ, full length (human) (UniProt Q9HBX9)
T2 sequence: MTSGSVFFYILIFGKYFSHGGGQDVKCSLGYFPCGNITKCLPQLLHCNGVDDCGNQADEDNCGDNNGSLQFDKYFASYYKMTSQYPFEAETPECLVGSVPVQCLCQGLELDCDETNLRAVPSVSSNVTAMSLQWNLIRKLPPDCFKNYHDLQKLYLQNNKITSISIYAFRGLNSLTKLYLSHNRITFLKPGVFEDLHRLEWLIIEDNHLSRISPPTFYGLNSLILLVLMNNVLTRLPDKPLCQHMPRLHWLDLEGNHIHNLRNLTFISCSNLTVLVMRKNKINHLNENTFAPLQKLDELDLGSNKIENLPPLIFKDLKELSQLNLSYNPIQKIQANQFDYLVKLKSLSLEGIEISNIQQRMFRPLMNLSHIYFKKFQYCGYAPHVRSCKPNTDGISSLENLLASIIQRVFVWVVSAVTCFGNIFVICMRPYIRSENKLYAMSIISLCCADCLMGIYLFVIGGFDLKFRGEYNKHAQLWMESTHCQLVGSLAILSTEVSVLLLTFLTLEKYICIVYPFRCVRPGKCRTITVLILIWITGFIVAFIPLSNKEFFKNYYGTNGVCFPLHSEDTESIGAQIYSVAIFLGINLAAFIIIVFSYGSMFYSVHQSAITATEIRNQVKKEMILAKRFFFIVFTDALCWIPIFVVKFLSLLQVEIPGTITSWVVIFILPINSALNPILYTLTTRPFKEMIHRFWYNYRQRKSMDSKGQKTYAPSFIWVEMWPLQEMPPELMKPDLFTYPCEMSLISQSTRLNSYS

[22] = biological target: RXFP1 T61A, full length (human)
[23] = biological target: RXFP1 Y57A, full length (human)

B1: Europium-labelled H2 relaxin (ligand, human)
chain 1: {DTPA}-QLYSALANKCCHVGCTKRSLARFC
chain 2: DSWMEEVIKLCGRELVRAQIAICGMSTWS
modifications: not fully specified; ends and bridges not checked; also: DTPA cage loaded with Eu^3+
notes: A chain of human gene-2 (H2) relaxin; numbers count on: the A chain; B chain of human gene-2 (H2) relaxin; numbers count on: the B chain; also called Eu-H2 relaxin; Eu-H2
Kd [1]: 1.56 nM
Kd [2]: 16.7 nM
Kd [3]: 6.74 nM
Kd [4]: 6.48 nM

H2 relaxin-induced cAMP response (pCRE β-galactosidase reporter, HEK293T), pEC50 [5]: 11 pEC50
H2 relaxin-induced cAMP response (pCRE β-galactosidase reporter, HEK293T), pEC50 [6]: 7.48 pEC50
H2 relaxin-induced cAMP response (pCRE β-galactosidase reporter, HEK293T), pEC50 [7]: 9.87 pEC50
H2 relaxin-induced cAMP response (pCRE β-galactosidase reporter, HEK293T), pEC50 [8]: 11.2 pEC50
H2 relaxin-induced cAMP response (pCRE β-galactosidase reporter, HEK293T), pEC50 [9]: 10.2 pEC50
H2 relaxin-induced cAMP response (pCRE β-galactosidase reporter, HEK293T), pEC50 [10]: 11.2 pEC50
H2 relaxin-induced cAMP response (pCRE β-galactosidase reporter, HEK293T), pEC50 [11]: 9.06 pEC50
H2 relaxin-induced cAMP response (pCRE β-galactosidase reporter, HEK293T), pEC50 [12]: 11 pEC50
H2 relaxin-induced cAMP response (pCRE β-galactosidase reporter, HEK293T), pEC50 [13]: 11.3 pEC50
H2 relaxin-induced cAMP response (pCRE β-galactosidase reporter, HEK293T), pEC50 [14]: < 6 pEC50
H2 relaxin-induced cAMP response (pCRE β-galactosidase reporter, HEK293T), pEC50 [15]: 11 pEC50
H2 relaxin-induced cAMP response (pCRE β-galactosidase reporter, HEK293T), pEC50 [16]: 10.8 pEC50
H2 relaxin-induced cAMP response (pCRE β-galactosidase reporter, HEK293T), pEC50 [17]: 8.29 pEC50
H2 relaxin-induced cAMP response (pCRE β-galactosidase reporter, HEK293T), pEC50 [18]: 9.41 pEC50
H2 relaxin-induced cAMP response (pCRE β-galactosidase reporter, HEK293T), pEC50 [19]: 9.45 pEC50
H2 relaxin-induced cAMP response (pCRE β-galactosidase reporter, HEK293T), pEC50 [20]: 11.1 pEC50
H2 relaxin-induced cAMP response (pCRE β-galactosidase reporter, HEK293T), pEC50 [21]: 11.2 pEC50
H2 relaxin-induced cAMP response (pCRE β-galactosidase reporter, HEK293T), pEC50 [22]: 11.2 pEC50
H2 relaxin-induced cAMP response (pCRE β-galactosidase reporter, HEK293T), pEC50 [23]: 10.9 pEC50
B2: H2 relaxin (ligand, human)
chain 1: QLYSALANKCCHVGCTKRSLARFC
chain 2: DSWMEEVIKLCGRELVRAQIAICGMSTWS

— PMC4837482, “The complex binding mode of the peptide hormone H2 relaxin to its receptor RXFP1” (Nature Communications, 2016)
